The target in the data set is MBP-DDX3X WT (UniProt O00571 1-662). The data set is described as follows: time-resolved fluorescence anisotropy. In general terms: Polarisation of emitted light reports the rotation of a fluorescent probe.

These results are taken from article doi:10.1101/2023.03.19.533240.

Chain of MBP-DDX3X WT (O00571 whole entry): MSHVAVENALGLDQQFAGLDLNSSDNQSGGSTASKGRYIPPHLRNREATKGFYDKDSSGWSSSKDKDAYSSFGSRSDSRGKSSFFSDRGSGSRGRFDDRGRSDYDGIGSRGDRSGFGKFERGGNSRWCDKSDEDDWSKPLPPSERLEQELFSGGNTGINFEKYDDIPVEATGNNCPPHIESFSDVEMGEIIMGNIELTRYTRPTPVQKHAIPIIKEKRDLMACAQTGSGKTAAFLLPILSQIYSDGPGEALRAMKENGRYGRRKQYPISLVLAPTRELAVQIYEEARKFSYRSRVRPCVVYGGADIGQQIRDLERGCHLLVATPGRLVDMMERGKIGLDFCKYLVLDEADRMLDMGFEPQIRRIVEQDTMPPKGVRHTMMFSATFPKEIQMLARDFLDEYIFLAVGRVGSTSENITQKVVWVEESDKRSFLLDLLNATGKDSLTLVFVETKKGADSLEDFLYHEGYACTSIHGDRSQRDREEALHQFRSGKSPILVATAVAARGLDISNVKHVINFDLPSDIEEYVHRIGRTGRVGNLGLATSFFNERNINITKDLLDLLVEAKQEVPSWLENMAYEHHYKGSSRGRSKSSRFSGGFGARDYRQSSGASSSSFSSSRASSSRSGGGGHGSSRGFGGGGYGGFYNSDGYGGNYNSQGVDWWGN

B1: long strand 42-mer ssRNA (ssRNA)
RNA: UUUUUUUUUUUUUUUUUUUUUUUUCGGAGCGACGGCAGCGGU
For the molecule B1, the binding result was “binds”.
